B1: HN3 (antibody, V domains shown)
VH: QVQLVQSGGGLVQPGGSLRLSCAASYFDFDSYEMSWVRQAPGKGLEWIGSIYHSGSTYYNPSLKSRVTISRDNSKNTLYLQMNTLRAEDTATYYCARVNMDRFDYWGQGTLVTVSS

What was measured:
[1] = biological target: 细胞表面的GPC3蛋白 (UniProt P51654); test: cell-based or functional assay
[2] = biological target: GPC3-his蛋白 (UniProt P51654 25-559); test: SPR (Biacore), GPC3-his amine-coupled on CM5, antibody as analyte, 1:1 Langmuir fit

| Molecule | 杀伤活性 IC50, Hep3BLG cells, 72 h, luciferase viability [1] | Kd [2] |
| --- | --- | --- |
| HN3-PE24 | 109 ng/mL | – |
| B1 | – | 1.95 nM |

Reference: CN114478780A (AGRICULTURAL UNIV IN CHINA, dated 2022)
